Source: patent US20250333441A1, “POLYPEPTIDE INHIBITORS AND USES THEREOF” (Neuracle Science Co., Ltd., priority 2021, published 2025)

Experiments:
FAM19A5 protein = FAM19A5 protein (Homo sapiens, UniProt Q7Z5A7); assay: Co-immunoprecipitation of FLAG-tagged LRRC4 family constructs with recombinant FAM19A5 in HEK293 cells; format: binding; settings: HEK293 cells expressing FLAG-tagged construct, recombinant FAM19A5 protein (1 μM) 30 minutes; anti-FLAG immunoprecipitation
[1] = biological target: binding of FAM19A5 protein to full-length ectodomain of the LRRC4B protein (amino acids 36-576)-hFc (Homo sapiens, UniProt Q7Z5A7); assay: Competitive inhibition assay, plate coated with full-length LRRC4B ectodomain; settings: 100 nM coated ectodomain; FAM19A5 5 ng/mL; increasing concentrations
Experimental: Next, to further assess the role that the binding domain of the LRRC4B protein has on the interaction between FAM19A5 protein and members of the LRRC4 protein family, a competitive inhibition assay was used to determine whether different LRRC4B deletion constructs from Example 2 could inhibit the binding of FAM19A5 to the full-length ectodomain of the LRRC4B protein (i.e., amino acids 36-576 of SEQ ID NO: 2; SEQ ID NO: 5). Briefly, 100 nM of the full-length ectodomain of the LRRC4B protein was used to coat a plate, and then recombinant FAM19A5 protein (5 ng/mL) was added to the plate in combination with the following LRRC4B deletion constructs (increasing concentrations): (1) LRRC4B (453-576) (i.e., construct #11 in Table 6); (2) LRRC4B (453-576) mutant (comprises alanine substitutions at positions 488 and 489 of SEQ ID NO: 2; SEQ ID NO: 16); (3) LRRC4B (484-576) (i.e., construct #12 in Table 6); (4) LRRC4B (482-576); (5) LRRC4B (482-497); and (6) LRRC4B (498-576). The plates were incubated at 37° C., and then, the amount of FAM19A5 bound to the coated LRRC4B ectodomain protein was measured using H1RP-conjugated anti-FAM19A5 (1-65) antibody. […]

Sequence of FAM19A5 protein (Q7Z5A7 44-132): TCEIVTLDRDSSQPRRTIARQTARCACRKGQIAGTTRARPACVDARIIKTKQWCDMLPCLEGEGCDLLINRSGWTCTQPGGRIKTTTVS
Sequence of binding of FAM19A5 protein to full-length ectodomain of the LRRC4B protein (amino acids 36-576)-hFc (Q7Z5A7 44-132): as above

B1: LRRC4B (453-576): LRRC4B fragment, amino acids 453-576 of SEQ ID NO: 2 (SEQ ID NO: 7); used hFc-fused (protein)
chain: VSAVDPVAAGGTGSGGGGPGGSGGVGGGSGGYTYFTTVTVETLETQPGEEALQPRGTEKEPPGPTTDGVWGGGRPGDAAGPASSSTTAPAPRSSRPTEKAFTVPITDVTENALKDLDDVMKTTK
modifications: human Fc fusion in use
notes: used hFc-fused
binding to FAM19A5 protein (co-immunoprecipitation) (FAM19A5 protein): able to bind to the FAM19A5 protein | inhibition of FAM19A5 binding to coated full-length LRRC4B ectodomain protein [1]: able to inhibit FAM19A5 protein from binding
